The experiment has as its system HeLa cells. It counts as cell-based, Human.

We go through one molecule from patent US8313731B2 (priority 2002, dated 2012).

B1: Holo-neocarzinostatin (protein, UniProt P0A3R9 35-147, looked up)
Neocarzinostatin: AAPTATVTPSSGLSDGTVVKVAGAGLQAGTAYDVGQCAWVDTGVLACNPADFSSVTADANGSASTSLTVRRSFEGFLFDGTRWGTVDCTTAACQVGLSDAAGNGPEGVAISFN
modifications: enediyne chromophore bound
B1: the cell survival is given as at least 90%. For the same molecule, the “incubation time within which full cytotoxic effect develops” value (37° C.) is recorded as at most 6 min. The IC50 (read-out: concentration of drug that kills 50% of the cell population) was 0.71 ± 0.05 nM.
